Data as given in paper PMC6284149, “Biochemical, Metabolomic, and Genetic Analyses of Dephospho Coenzyme A Kinase Involved in Coenzyme A Biosynthesis in the Human Enteric Parasite Entamoeba histolytica” (Frontiers in Microbiology, 2018).

Assays:
EhDPCK2 = biological target: T1, EhDPCK2 (Entamoeba histolytica, UniProt C4LWC7); experiment: inhibition of DPCK activity; type: biochemical
T1 construct: gene EHI_155780; expressed in E. coli BL21(DE3), Ni-NTA purified
T1 sequence (C4LWC7 1-204): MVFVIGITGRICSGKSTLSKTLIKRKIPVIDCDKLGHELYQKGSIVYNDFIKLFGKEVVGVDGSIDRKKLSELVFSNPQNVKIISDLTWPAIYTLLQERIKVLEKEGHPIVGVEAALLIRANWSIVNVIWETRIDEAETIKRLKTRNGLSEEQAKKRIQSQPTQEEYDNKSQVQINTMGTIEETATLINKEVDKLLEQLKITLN

EhDPCK1 = biological target: T2, EhDPCK1 (Entamoeba histolytica, UniProt C4MB67); experiment: inhibition of DPCK activity; type: biochemical
T2 construct: gene EHI_040840; expressed in E. coli BL21(DE3), Ni-NTA purified
T2 sequence (C4MB67 1-206): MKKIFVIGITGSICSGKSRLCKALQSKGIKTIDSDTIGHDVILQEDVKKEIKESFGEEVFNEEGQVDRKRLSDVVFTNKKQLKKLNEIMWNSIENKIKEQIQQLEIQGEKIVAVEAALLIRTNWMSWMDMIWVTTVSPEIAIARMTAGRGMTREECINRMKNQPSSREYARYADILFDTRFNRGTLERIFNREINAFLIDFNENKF

[1] = substrate: CC(C)(COP(=O)(O)OP(=O)(O)OC[C@H]1O[C@@H](n2cnc3c(N)ncnc32)[C@H](O)[C@@H]1O)[C@@H](O)C(=O)NCCC(=O)NCCS; experiment: ADP Hunter Plus coupled fluorescence assay, initial rates, non-linear regression; type: biochemical, Entamoeba histolytica; settings: 100 μM ATP; 4-128 μM dephospho-CoA; 15 mM Hepes, 20 mM NaCl, 1 mM EGTA, 10 mM MgCl2
Excerpt: (§1) ADP Hunter Plus coupled fluorescence assay, initial rates, non-linear regression on EhDPCK1

[2] = substrate: Nc1ncnc2c1ncn2[C@@H]1O[C@H](COP(=O)(O)OP(=O)(O)OP(=O)(O)O)[C@@H](O)[C@H]1O; experiment: as above; type: biochemical, Entamoeba histolytica; settings: 128 μM dephospho-CoA; 1-100 μM ATP; 15 mM Hepes, 20 mM NaCl, 1 mM EGTA, 10 mM MgCl2
Excerpt: as §1

[3] = substrate: CC(C)(COP(=O)(O)OP(=O)(O)OC[C@H]1O[C@@H](n2cnc3c(N)ncnc32)[C@H](O)[C@@H]1O)[C@@H](O)C(=O)NCCC(=O)NCCS; experiment: as above; type: biochemical, Entamoeba histolytica; settings: 100 μM ATP; 4-128 μM dephospho-CoA; 15 mM Hepes, 20 mM NaCl, 1 mM EGTA, 10 mM MgCl2; remark: listed apart in the source
Excerpt: (§2) ADP Hunter Plus coupled fluorescence assay, initial rates, non-linear regression on EhDPCK2

[4] = substrate: Nc1ncnc2c1ncn2[C@@H]1O[C@H](COP(=O)(O)OP(=O)(O)OP(=O)(O)O)[C@@H](O)[C@H]1O; experiment: as above; type: biochemical, Entamoeba histolytica; settings: 128 μM dephospho-CoA; 1-100 μM ATP; 15 mM Hepes, 20 mM NaCl, 1 mM EGTA, 10 mM MgCl2; remark: listed apart in the source
Excerpt: as §2

[5] = feedback inhibition at relatively high concentrations
[6] = product feedback inhibition at relatively high concentrations

For `CC(C)(COP(=O)(O)OP(=O)(O)OC[C@H]1O[C@@H](n2cnc3c(N)ncnc32)[C@H](O)[C@@H]1OP(=O)(O)O)[C@@H](O)C(=O)NCCC(=O)NCCSC(=O)CC(=O)O` [malonyl-CoA], the inhibition (EhDPCK2; [5]) was “Both EhDPCK1 and EhDPCK2 showed similar profiles of inhibition by CoA, acetyl-CoA, and malonyl-CoA” and the inhibition (EhDPCK1; [5]) was “Both EhDPCK1 and EhDPCK2 showed similar profiles of inhibition by CoA, acetyl-CoA, and malonyl-CoA”.

For `CC(C)(COP(=O)(O)OP(=O)(O)OC[C@H]1O[C@@H](n2cnc3c(N)ncnc32)[C@H](O)[C@@H]1OP(=O)(O)O)[C@@H](O)C(=O)NCCC(=O)NCCS` [CoA], the inhibition (EhDPCK2; [6]) was “Both EhDPCK1 and EhDPCK2 showed similar profiles of inhibition by CoA, acetyl-CoA, and malonyl-CoA” and the inhibition (EhDPCK1; [6]) was “Both EhDPCK1 and EhDPCK2 showed similar profiles of inhibition by CoA, acetyl-CoA, and malonyl-CoA”.

`CC(=O)SCCNC(=O)CCNC(=O)[C@H](O)C(C)(C)COP(=O)(O)OP(=O)(O)OC[C@H]1O[C@@H](n2cnc3c(N)ncnc32)[C@H](O)[C@@H]1OP(=O)(O)O` [acetyl-CoA] was tested, and the inhibition (EhDPCK2; [5]) was “Both EhDPCK1 and EhDPCK2 showed similar profiles of inhibition by CoA, acetyl-CoA, and malonyl-CoA” and the inhibition (EhDPCK1; [5]) was “Both EhDPCK1 and EhDPCK2 showed similar profiles of inhibition by CoA, acetyl-CoA, and malonyl-CoA”.

B1: EhDPCK1 (Entamoeba histolytica HM-1:IMSS) (protein)
chain: T2 sequence (C4MB67 1-206)
notes: expressed in E. coli BL21(DE3), Ni-NTA purified
B1 was tested, and the Km [1] was 114 ± 19 µM, the Vmax [1] was 3.71 µmol/min/mg and the kcat [1] was 1.48 ± 0.172 s⁻¹. For the same molecule, the kcat/Km [1] was 13000 ± 667 M⁻¹ s⁻¹, the Km [2] was 19.6 ± 1.2 µM and the Vmax [2] was 3.54 µmol/min/mg. It also gave a kcat [2] of 1.41 ± 0.04 s⁻¹ and a kcat/Km [2] of 72000 ± 3830 M⁻¹ s⁻¹.

B2: EhDPCK2 (Entamoeba histolytica HM-1:IMSS) (protein)
chain: T1 sequence (C4LWC7 1-204)
notes: as for B1
For B2, the Km [3] was 57.9 ± 6.07 µM, the Vmax [3] was 2.48 µmol/min/mg and the kcat [3] was 0.958 ± 0.0583 s⁻¹. The kcat/Km [3] was 16500 ± 1170 M⁻¹ s⁻¹, the Km [4] was 15.0 ± 2.4 µM and the Vmax [4] was 2.71 µmol/min/mg. For the same molecule, the kcat [4] was 1.05 ± 0.0617 s⁻¹ and the kcat/Km [4] was 70800 ± 12300 M⁻¹ s⁻¹.
